Data from PMC11098746 (2024).

Tests used:
Assay in all cases: AVEXIS screen signal:noise (double-corrected)
[1] = target: ADP390
[2] = target: T1, ADP103
T1 chain: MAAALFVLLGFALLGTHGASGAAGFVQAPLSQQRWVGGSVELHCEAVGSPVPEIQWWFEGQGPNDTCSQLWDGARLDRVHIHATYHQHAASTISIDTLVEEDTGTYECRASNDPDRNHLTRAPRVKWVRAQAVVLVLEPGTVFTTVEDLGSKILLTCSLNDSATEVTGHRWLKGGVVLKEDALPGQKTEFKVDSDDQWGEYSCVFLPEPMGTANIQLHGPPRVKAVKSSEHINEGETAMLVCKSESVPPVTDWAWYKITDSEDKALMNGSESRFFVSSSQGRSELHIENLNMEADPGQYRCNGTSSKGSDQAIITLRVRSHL

[3] = target: T2, ADP144
T2 chain: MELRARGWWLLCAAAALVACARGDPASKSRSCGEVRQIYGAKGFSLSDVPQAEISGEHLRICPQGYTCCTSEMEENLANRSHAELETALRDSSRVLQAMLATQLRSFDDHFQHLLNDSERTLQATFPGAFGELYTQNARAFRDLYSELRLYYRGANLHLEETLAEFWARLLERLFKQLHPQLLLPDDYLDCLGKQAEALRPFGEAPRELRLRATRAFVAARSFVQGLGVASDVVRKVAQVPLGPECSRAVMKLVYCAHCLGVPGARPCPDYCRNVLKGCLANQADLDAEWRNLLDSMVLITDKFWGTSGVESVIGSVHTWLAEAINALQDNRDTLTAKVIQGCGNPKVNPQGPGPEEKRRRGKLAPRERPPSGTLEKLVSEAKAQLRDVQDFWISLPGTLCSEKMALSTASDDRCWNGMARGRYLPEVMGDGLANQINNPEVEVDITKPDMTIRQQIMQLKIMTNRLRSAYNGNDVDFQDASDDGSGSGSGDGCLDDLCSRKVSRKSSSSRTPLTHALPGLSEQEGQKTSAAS

[4] = target: ADP158
[5] = target: ADP323
[6] = target: T3, ADP366
T3 chain: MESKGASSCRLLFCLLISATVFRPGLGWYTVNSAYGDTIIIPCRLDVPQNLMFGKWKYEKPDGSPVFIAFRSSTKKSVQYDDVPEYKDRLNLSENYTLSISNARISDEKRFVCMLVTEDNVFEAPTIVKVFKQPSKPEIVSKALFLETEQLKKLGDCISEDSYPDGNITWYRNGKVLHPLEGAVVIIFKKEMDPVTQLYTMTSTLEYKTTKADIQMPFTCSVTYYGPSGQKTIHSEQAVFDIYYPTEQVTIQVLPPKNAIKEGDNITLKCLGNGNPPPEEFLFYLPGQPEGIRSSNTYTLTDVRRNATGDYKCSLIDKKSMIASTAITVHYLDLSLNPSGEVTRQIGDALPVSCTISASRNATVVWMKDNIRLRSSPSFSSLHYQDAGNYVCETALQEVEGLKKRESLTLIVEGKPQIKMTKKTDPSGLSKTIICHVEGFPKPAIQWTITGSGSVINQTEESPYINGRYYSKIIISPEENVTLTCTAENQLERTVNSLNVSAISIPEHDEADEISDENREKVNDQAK

[7] = target: T4, ADP368
T4 chain: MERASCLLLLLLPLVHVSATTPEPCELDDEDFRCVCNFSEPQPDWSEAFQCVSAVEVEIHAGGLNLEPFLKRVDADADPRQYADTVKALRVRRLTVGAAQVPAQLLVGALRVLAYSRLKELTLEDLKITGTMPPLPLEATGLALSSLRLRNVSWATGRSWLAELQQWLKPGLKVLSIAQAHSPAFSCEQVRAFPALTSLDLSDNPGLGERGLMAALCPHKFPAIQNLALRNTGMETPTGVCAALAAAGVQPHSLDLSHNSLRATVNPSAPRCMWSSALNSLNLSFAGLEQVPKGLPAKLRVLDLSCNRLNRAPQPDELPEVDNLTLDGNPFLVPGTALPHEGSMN

[8] = target: T5, ADP315
T5 chain: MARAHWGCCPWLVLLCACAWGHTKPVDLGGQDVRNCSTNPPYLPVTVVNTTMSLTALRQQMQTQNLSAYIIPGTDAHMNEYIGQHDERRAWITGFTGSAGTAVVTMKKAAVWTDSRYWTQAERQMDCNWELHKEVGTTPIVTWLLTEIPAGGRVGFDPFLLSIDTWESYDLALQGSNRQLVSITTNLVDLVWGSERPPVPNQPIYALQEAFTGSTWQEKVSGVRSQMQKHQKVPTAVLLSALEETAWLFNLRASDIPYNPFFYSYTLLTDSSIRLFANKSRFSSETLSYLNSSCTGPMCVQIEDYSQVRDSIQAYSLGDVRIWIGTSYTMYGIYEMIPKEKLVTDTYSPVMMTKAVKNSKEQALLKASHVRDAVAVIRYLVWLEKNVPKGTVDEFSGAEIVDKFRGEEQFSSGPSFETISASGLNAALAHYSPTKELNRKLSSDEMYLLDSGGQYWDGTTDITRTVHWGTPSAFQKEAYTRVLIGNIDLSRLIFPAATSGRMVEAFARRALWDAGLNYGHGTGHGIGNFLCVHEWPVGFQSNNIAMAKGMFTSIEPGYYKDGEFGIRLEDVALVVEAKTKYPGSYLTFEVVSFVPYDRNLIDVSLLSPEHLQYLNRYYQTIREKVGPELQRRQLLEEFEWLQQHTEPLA

B1: ADP253 (protein)
chain: ANAFYVDNGQEMLIKEKEHYSSDSEHHKEESASIGNLNVFFPAENYHFSTYMGFDRRSFLPSNEIELEKMIGANFANEVKNYCSRQNVAQKIGDYLNIAFEYSRALEELRSEMILDFNKRKHLTNNADDTILHMIENAEKRKNDPNYKEAYENKDYANNANIFMNEYSNPLSTKYNKILKEYLCHLFVNNPGTKPLERLYYNSLALGELVEPIRNKFKSLASSTIDFNYEIHMASASNIYLLAHFLVLSLAYLSYNEYFTTGTKSFYSLPTILTANSDNSFFMLNEMCNIHYNPNKNFKKDITFIPIESRPKRTTTFYGERRLTCDLLELVLNAIMLININEINNVFSNNNVDGYENSLSFSHNAIRIFSKVCPKINNDNVLKCEFEESSLYNPKIIKNDASEKSSQKNLKKAFDLLRTYAEIEGHSAEGSTSPYYVSLILDDMKYNDFYKYTLWYEPRELIYGDIRGMQMKKKKKTKYIYNDFMKKSTQLKKKLIKNDLKYNLKSKGLVFLYAMIDKYGSILNKAQKAKVQFLNSASSIRYYLYLNKVIFKSAKTYLDIMKRVLEELQTSTNTPLKFLVRGNYIENINNIARNDNMFYANLFVLTALSRRDPVKDYYNDKRKMLSATLAEKFANSASMLIPHKLRKLVVSMKKGLLKKKLLTSLAKVKLLQHIPAHMLENIASSIRFTTHTIATMQIIQNAKYMSKHNFAQYDSKGMLARQIFTKGGFAEYADNLMAKWFSKGFEEYKREQIENFKMENSIDSELKDSEREDENDASEESAKKKLQDLQLEEREKMKKENSLLFNQADKWDQFINKELVRALGLWLEFNDNPANAASFVYKVVEDSKHLLENNIDNNIIFSRTVKPTKQTAFRRFFNKILSLGNMLLRKPSFRVEHALWFGATIDIKKAFILLEKVSELHKMLNNQDESWLINEAFIEIVDHVVDLSTYKHVREPFGVARNPGMMAINPKYAELSHENRLRELQNSMCADHCSSVWKVISSFALHHLKNPDSLHTYESKFSKNSFGNKIDDKDFVHNFKMILGGDAVLHYFDNLLPKTMKKDLKAMKYGVSLTSAYSLKLTKIIFSQMQLPYLSQMFYMQAPYFGHFIGKWQKKRQQSRLKEIMSFMTLGSLSAYTLFSAMDITQQAKDIGAGPVASCFTTRMSPPQQICLNSVVNAALSTSTQSAMKCVFSV
modifications: bait human Fc-tagged dimer; N-glycosylation sequons mutated in Plasmodium baits
[1]
  binding score: 7.2

B2: ADP180 (protein)
chain: RGNQISKCVFYDKRNKDLKQVFYVPTNDVNMYKETIRKLLSREISLLEEPLNENSDSHNMANKKNVANFEEIKKNDENNNRKRKEMEEKLKYIEKYRNYAKGVLKNVEFKCENVDDLKSKVKCNLCVYTEIVNNKHIRQGQIIQIFMNECMYGFYYYDNINQYTQNNEYNNKALKDYNSAQKLDDIYFNIAKDISEGNVNGINFFKQQSSKYHPVCYVTE
modifications: bait human Fc-tagged dimer; N-glycosylation sequons mutated in Plasmodium baits
[2]
  binding score: 9.97
[3]
  binding score: 20

B3: ADP167 (protein)
chain: EFKRKQKVEINSLQTNKNNDNIREEKIKGDVESQPDVDGDTCVIFSSSEGNSRNCWCPRGYILCSEEDVLDVQGKLNEIKNKHERSLVTPLWMKRLCDNSNDVGFKSMSVVIDYELAVLCKDGSNKDYADFEIIGASGYITGEEMIEEQKRNPWYVPRKCTVNNFYLCRKVENDNVNCAYTPWSDWSACKNNAQKRYRKVRRSNQNNENFCLWNDKIVPRNIMEQTRSC
modifications: bait human Fc-tagged dimer; N-glycosylation sequons mutated in Plasmodium baits
[4]
  binding score: 19.1

B4: ADP247 (protein)
chain: GIISGRINIAAEFHINIFVKDYFKKKKLTFVNFVSLCPKGFNIENNKCIPCPIGLYYSNSKSINQCIPCENYRKHSTTLYNSAKSKTECLCKPGYFLKDKRCVKCVAGFYKDQIGNFKCQGTCENTKMSIEVGAKNYEELKCTCKDGYFTEKKKKECIPCPFGNYCIYNPKVKYKADIIRCKNNKLTLHRGSKSPNDCLCSQGYYHDYKMDECELCNYDQYKSHISNDPCVPFISKSLVNQEYLINEPYFQYTNIYIKQTSNIIFAPKKGSKMFHEATLCETGYSYSMNKAICSICRYNNYCLGLDHSSIICPKNSITIKLKSVSALDCLCIKGYGRIIINTNQAFTISCIPCPYNTFQPHHSYGKCIPCPPHTFTKITGATSITECIPKMGYYNIAFEYIYEYSKQQMLNSIPHFIQYYHYFLKNQYEHFA
modifications: bait human Fc-tagged dimer; N-glycosylation sequons mutated in Plasmodium baits
[5]
  binding score: 5.73
[6]
  binding score: 5.26
[7]
  binding score: 5.45
[8]
  binding score: 5.78
